Measured values taken from paper PMC2737084 (Biochemistry, 2009).

Biological target: the molecule itself
Assay: SEC

B1: Pseudomonas aeruginosa bacterioferritin B (natural protein)
chain: not shown
  stoichiometry N: 24
